According to the DeepSol protein solubility set:

Test: soluble on expression in E. coli; label from the status in PepcDB or PDB records
For “MSQQIQMKSVIDVKFPTHLFSPLATSSPKLTRMRAPIRDQSWSSCSDDSSGNLTSQAITGVDDSHIEATKLENESSTSSCSMHTALEFVNSSIFERVRSYSEVITREELQSAIFERKLTETDCSKEEAEMYSIIVTERILWTAGRTWTGTIQVKTKDLLNDYVRYACEDWYMKHTGQLCAVELNHIGKWDEIFDSNAIAIYCYETGIPTIIVDRIFSSNLVRRSTGNYLDTKEVTWLIFAMIGTDENQSIEYWFRVLDVQSTGILQLDDLRMFYDAITKFLVNNNVQSLPFENAIAQFRDILGTDKWNLQSFKKNSQLAFRVINGFVCALRFLEQEICEKTNTERQDDEEFGMVRTRWQRLIDHKFDDYYAQSSTSSSGSFNINNEPINPV”, the “soluble on expression in E. coli” value was “not soluble”. For “MGSDKIHHHHHHMVGCLTLTLLVGCSAAEKPVEQVKQVKNTLTAKLATEEKMIEIDGQTIYFKKIGNEKPPLLMIHGFGGSSDGFQKIYSDLAKNHTIISVDALGFGRSSKPMDFYYSFPTHANLYYKLMKKLGYDSFAILGHSMGGEISLNLTYLYPEAVTHLILTDATGGPHTLVNKQGSPRPQLSTDLNTVSAITDYDESKVKFKRNDEEHYNKMKLWPRRLQINADEIKQPTLIIWGRNDSSVSWEEGETYHQFFKNSTFHIIEKGYHAPFRQEPQEFVGYVKDFFDKNPIIAEK”, the “soluble on expression in E. coli” value was “not soluble”. For “QVKLQQSGGGLVKPGASLKLSCVTSGFTFRKFGMSWVRQTSDKCLEWVASISTGGYNTYYSDNVKGRFTISRENAKNTLYLQMSSLKSEDTALYYCTRGYSSTSYAMDYWGQGTTVTVSGIEGR”, the “soluble on expression in E. coli” value was “soluble”. With “MSSRKELANAIRALSMDAVQKAKSGHPGAPMGMADIAEVLWRDFLKHNPQNPSWADRDRFVLSNGHGSMLIYSLLHLTGYDLPMEELKNFRQLHSKTPGHPEVGYTAGVETTTGPLGQGIANAVGMAIAEKTLAAQFNRPGHDIVDHYTYAFMGDGCMMEGISHEVCSLAGTLKLGKLIAFYDDNGISIDGHVEGWFTDDTAMRFEAYGWHVIRDIDGHDAASIKRAVEEARAVTDKPSLLMCKTIIGFGSPNKAGTHDSHGAPLGDAEIALTREQLGWKYAPFEIPSEIYAQWDAKEAGQAKESAWNEKFAAYAKAYPQEAAEFTRRMKGEMPSDFDAKAKEFIAKLQANPAKIASRKASQNAIEAFGPLLPEFLGGSADLAPSNLTLWSGSKAINEDAAGNYIHYGVREFGMTAIANGISLHGGFLPYTSTFLMFVEYARNAVRMAALMKQRQVMVYTHDSIGLGEDGPTHQPVEQVASLRVTPNMSTWRPCDQVESAVAWKYGVERQDGPTALILSRQNLAQQERTEEQLANIARGGYVLKDCAGQPELIFIATGSEVELAVAAYEKLTAEGVKARVVSMPSTDAFDKQDAAYRESVLPKAVTARVAVEAGIADYWYKYVGLNGAIVGMTTFGESAPAELLFEEFGFTVDNVVAKAKELLHHHHHH” the “soluble on expression in E. coli” value was “soluble”. For “MSLSFKDAVRKRPGMYFGDIDHNAVNHVIYELVANVVDLFLAGRATTLKVDVSECEIIVIDDGPGFPFPVEDSAHNLVERYLTHHHDKPTADDHAPHIHVLGGGLGLAAVNAVSEKLTIESSNGAWRWRQVFGKGDVLAPLESFRYDGPSGSSIKFTLDPSVFHNRLPDFFQLRKAMFELAHLYSGLIVEFDGERYVSKQGLMELAYLMWSGEGHHHHHH”, the “soluble on expression in E. coli” value was “not soluble”. With “QPKPEEKLTNNIILKKLQIALNLKADEVLDLLKLVNFRLSKHELSAFFRKPDHKHYRVCKDQVLRNFLQAVQQNLRG” the “soluble on expression in E. coli” value was “not soluble”. With “QVQLLQPGAELVKPGASVKLSCKASGYTFTSYWMYWVKQRPGQGLEWIGEIDPSDSYTNYNQNFKGKATLTVDKSSSTAFMQLSSLTSQDSAVYFCARSPHYYGTTYNYPMDYWGQGTSVTVSSAKTTPPSVYPLAPGCGDTTGSSVTLGCLVKGYFPESVTVTWNSGSLSSSVHTFPALLQSGLYTMSSSVTVPSSTWPSQTVTCSVAHPASSTTVDKKLEP” the “soluble on expression in E. coli” value was “soluble”. With “MSEFKSKLESETLDFLCDAILTLENREECYRFFDDIFTINEIKTIEQRLQVAKMLKEKHTYSDISAETGASTATISRVNRCINYGSDGYNIVLRRLEK” the “soluble on expression in E. coli” value was “not soluble”. With “MPSDSTSNIDTTQRQSADLMAEGFGAGVNAPFLVIVDTHEVNADSTALQPLIEAQEPEEGEFDREQAARFATYMYVTQTYNSNIDVKNAQIISVNDDFTAAQILVTPYTGPADKETPELMHVLRAQEAQIEDVTGTELGTTGFTAVQLDITEQLEDAMPVYLEHHHHHH” the “soluble on expression in E. coli” value was “not soluble”. In the case of “MSAKIYRPAKTAMQSGTAKTNVWVLEFDAEVPRKIDPIMGYTSSSDMKQQVKLTFETQEQAEAYAQRKGIEYRVILPKEATRKVVSYTDNFRFNRTQPWTHLEHHHHHH”, the “soluble on expression in E. coli” value is reported as “soluble”. With “GPGSMLANYDYESDLRGRTDELGRAQHVDAYDKHPTFLESPYAGQEDLLRDAPQSYMDGPPPGYGGHDAYEHVDMNGGGYDLPLQPQAQTQAVDTRRLSKDRLARGGLNIFSWNTDAPTLNHPREVRERDCAELQRLRPVDSAAQRDKEVREKFEGNTQSRFLCFSESDSPGKRRGVRVFNPNNKNGNLNSGTGHENPIQNRFNEEPQPFKIRQQQPRPLPQQNLPPAGRATHSNRQESGGIPGFAGMGEGRQHNARRGRGSYRG” the “soluble on expression in E. coli” value was “not soluble”. With “MSLKIDIHPLTHDPTSAWKELSKSQRVIKINTKPPAVDVPSNKVRVVCMSDTHSLTHHIKFDIPDGDIFIHAGDFTRCGKLDEVVDFNEWLKKLPHKHKLVIAGNHELSFDHTFTHPFQNASACCKKTGSTLLDEIPTLGNSKESLAEAVKTENIRQYLSSCTYLQDECVELYGLKIYGTPWQPEFCKWAFNVKRGQACLEKWEQIPENVDILVTHTPPVGHGDLCCSGVRAGCVELLATVQQRVKPKYHVFGHVHEGYGITSDGRIIFVNASTCDINYLPNNQPIVFDVTLPKGRTKDEGHHHHHH” the “soluble on expression in E. coli” value was “soluble”. In the case of “MAFNKVKIVKGSGGWGGPLIIEPTEKKNKVVYVTGGAKPETAVKIAELTGCELIDGFSQGVKDDEIACVIINCGGTLRCGIYPQKKIPTINIMKTGKSGPLAMFIKEDIYVSGVKPTNVEQ”, the “soluble on expression in E. coli” value is reported as “not soluble”. In the case of “MGSDKIHHHHHHMGKTLAEKIFSEHVGRDVKAGEIVLARVDIAMAQDGTGPLMINEFRELGFKEVKVPKAFLFIDHASPSPRKELSNSQKMMREFGKEMGVKVFDAGDGISHQILAEKYVKPGDLVAGADSHTCTAGGLGAFGTGMGSTDVAIIFGLGQNWFKVPETIKVVVNGKLQDGVYAKDIILEIARILGSDGATYKALEFHGSCIENMNVEDRLTISNMAVEVGAKAGLMPSDEKTREFLKKMGREEDFRELKADPDAVYETEIEIDATTLEPLVSLPHYVDNVRKVSEVEKEKIKIDQVFIGTCTNGRLQDLEIALKILEKHGKHPDVRLIVGPASRKVYMDALEKGIIKKFVELGAAVIPPGCGPCVGIHMGVLGDGERVLSTQNRNFKGRMGNPNAEIYLASPATAAATAVTGYITDPRRFI”, the “soluble on expression in E. coli” value is reported as “not soluble”. In the case of “MSLKEKLVAIVGPTAVGKTKTSVMLAKRLNGEVISGDSMQVYRGMDIGTAKITAEEMDGVPHHLIDIKDPSESFSVADFQDLATPLITEIHERGRLPFLVGGTGLYVNAVIHQFNLGDIRADEDYRHELEAFVNSYGVQALHDKLSKIDPKAAAAIHPNNYRRVIRALEIIKLTGKTVTEQARHEEETPSPYNLVMIGLTMERDVLYDRINRRVDQMVEEGLIDEAKKLYDRGIRDCQSVQAIGYKEMYDYLDGNVTLEEAIDTLKRNSRRYAKRQLTWFRNKANVTWFDMTDVDFDKKIMEIHNFIAGKLEEKSKEGHHHHHH”, the “soluble on expression in E. coli” value is reported as “soluble”.
